# Assay results as given in paper PMC2185550.
# “And” between values parts separate entries of the source, which are not always exact repeats. Equal entries are not always repeated.
# What was measured:
# [1] = biological target: p300 (human (endogenous in HEp-2)) (UniProt Q09472); test: co-IP
# [2] = biological target: CREB-binding protein (CBP) (human (endogenous in HEp-2)) (UniProt Q92793); test: co-IP
# Sequence of UniProt Q92793 (Q92793 whole entry): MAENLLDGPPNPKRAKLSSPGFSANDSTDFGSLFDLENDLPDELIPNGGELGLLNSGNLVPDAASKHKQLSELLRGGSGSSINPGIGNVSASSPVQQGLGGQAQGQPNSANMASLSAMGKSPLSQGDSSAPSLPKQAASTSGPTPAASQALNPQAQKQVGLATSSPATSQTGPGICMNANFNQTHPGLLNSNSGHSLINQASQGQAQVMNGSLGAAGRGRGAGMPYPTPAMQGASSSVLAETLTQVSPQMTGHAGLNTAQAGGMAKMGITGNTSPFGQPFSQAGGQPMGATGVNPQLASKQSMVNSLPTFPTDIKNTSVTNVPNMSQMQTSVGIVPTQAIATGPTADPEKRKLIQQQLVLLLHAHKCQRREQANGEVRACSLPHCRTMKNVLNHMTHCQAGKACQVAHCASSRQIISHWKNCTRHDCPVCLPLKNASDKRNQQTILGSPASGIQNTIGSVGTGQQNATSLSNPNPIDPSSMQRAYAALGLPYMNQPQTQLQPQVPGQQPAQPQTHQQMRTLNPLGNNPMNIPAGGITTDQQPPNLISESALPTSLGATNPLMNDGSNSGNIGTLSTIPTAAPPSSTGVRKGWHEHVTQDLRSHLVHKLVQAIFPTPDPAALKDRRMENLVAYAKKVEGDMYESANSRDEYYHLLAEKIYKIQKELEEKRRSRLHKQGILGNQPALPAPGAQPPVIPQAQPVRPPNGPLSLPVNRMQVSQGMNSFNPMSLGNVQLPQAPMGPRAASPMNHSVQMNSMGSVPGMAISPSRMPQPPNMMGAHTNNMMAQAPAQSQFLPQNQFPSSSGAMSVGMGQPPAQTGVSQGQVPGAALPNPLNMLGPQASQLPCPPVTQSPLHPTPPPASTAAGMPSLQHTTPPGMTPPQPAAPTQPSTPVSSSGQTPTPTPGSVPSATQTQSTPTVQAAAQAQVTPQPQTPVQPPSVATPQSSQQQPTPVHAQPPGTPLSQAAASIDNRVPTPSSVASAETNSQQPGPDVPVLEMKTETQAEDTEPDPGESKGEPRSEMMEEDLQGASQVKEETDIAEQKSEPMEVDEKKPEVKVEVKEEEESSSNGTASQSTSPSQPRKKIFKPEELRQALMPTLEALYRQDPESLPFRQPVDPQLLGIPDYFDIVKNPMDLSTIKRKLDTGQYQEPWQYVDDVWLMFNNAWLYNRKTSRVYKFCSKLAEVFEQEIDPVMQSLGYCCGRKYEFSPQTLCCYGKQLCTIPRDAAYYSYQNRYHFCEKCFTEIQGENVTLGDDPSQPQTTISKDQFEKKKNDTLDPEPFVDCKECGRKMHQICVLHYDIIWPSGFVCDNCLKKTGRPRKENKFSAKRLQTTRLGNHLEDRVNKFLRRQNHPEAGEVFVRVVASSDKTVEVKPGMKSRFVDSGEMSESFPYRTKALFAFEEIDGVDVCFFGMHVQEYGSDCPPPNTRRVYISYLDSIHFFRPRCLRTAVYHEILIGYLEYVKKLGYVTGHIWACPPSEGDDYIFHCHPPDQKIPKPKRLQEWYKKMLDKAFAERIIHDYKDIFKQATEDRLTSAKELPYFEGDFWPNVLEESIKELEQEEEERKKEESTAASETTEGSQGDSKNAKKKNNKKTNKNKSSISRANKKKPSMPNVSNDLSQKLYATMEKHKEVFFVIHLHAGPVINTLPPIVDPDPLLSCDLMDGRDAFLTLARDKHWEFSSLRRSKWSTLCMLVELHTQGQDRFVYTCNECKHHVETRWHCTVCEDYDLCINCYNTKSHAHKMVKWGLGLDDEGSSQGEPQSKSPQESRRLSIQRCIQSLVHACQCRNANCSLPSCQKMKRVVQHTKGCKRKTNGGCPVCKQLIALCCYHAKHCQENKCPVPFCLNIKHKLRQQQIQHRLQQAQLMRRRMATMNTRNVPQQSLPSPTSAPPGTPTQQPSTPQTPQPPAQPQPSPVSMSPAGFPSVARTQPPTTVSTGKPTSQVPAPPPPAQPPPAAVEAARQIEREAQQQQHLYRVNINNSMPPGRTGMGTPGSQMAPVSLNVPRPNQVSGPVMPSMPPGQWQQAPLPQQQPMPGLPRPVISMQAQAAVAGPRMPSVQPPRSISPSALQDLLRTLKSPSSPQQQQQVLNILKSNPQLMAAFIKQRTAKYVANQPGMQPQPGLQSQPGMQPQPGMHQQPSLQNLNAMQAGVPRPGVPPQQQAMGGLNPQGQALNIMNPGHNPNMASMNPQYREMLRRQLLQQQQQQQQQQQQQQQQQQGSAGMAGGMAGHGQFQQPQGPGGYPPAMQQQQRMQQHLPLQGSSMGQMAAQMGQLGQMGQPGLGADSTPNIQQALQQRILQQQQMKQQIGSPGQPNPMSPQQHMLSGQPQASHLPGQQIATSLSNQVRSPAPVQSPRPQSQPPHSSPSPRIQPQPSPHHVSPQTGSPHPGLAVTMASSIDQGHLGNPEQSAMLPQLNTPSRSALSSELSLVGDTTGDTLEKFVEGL
# Sequence of UniProt Q09472 (Q09472 whole entry): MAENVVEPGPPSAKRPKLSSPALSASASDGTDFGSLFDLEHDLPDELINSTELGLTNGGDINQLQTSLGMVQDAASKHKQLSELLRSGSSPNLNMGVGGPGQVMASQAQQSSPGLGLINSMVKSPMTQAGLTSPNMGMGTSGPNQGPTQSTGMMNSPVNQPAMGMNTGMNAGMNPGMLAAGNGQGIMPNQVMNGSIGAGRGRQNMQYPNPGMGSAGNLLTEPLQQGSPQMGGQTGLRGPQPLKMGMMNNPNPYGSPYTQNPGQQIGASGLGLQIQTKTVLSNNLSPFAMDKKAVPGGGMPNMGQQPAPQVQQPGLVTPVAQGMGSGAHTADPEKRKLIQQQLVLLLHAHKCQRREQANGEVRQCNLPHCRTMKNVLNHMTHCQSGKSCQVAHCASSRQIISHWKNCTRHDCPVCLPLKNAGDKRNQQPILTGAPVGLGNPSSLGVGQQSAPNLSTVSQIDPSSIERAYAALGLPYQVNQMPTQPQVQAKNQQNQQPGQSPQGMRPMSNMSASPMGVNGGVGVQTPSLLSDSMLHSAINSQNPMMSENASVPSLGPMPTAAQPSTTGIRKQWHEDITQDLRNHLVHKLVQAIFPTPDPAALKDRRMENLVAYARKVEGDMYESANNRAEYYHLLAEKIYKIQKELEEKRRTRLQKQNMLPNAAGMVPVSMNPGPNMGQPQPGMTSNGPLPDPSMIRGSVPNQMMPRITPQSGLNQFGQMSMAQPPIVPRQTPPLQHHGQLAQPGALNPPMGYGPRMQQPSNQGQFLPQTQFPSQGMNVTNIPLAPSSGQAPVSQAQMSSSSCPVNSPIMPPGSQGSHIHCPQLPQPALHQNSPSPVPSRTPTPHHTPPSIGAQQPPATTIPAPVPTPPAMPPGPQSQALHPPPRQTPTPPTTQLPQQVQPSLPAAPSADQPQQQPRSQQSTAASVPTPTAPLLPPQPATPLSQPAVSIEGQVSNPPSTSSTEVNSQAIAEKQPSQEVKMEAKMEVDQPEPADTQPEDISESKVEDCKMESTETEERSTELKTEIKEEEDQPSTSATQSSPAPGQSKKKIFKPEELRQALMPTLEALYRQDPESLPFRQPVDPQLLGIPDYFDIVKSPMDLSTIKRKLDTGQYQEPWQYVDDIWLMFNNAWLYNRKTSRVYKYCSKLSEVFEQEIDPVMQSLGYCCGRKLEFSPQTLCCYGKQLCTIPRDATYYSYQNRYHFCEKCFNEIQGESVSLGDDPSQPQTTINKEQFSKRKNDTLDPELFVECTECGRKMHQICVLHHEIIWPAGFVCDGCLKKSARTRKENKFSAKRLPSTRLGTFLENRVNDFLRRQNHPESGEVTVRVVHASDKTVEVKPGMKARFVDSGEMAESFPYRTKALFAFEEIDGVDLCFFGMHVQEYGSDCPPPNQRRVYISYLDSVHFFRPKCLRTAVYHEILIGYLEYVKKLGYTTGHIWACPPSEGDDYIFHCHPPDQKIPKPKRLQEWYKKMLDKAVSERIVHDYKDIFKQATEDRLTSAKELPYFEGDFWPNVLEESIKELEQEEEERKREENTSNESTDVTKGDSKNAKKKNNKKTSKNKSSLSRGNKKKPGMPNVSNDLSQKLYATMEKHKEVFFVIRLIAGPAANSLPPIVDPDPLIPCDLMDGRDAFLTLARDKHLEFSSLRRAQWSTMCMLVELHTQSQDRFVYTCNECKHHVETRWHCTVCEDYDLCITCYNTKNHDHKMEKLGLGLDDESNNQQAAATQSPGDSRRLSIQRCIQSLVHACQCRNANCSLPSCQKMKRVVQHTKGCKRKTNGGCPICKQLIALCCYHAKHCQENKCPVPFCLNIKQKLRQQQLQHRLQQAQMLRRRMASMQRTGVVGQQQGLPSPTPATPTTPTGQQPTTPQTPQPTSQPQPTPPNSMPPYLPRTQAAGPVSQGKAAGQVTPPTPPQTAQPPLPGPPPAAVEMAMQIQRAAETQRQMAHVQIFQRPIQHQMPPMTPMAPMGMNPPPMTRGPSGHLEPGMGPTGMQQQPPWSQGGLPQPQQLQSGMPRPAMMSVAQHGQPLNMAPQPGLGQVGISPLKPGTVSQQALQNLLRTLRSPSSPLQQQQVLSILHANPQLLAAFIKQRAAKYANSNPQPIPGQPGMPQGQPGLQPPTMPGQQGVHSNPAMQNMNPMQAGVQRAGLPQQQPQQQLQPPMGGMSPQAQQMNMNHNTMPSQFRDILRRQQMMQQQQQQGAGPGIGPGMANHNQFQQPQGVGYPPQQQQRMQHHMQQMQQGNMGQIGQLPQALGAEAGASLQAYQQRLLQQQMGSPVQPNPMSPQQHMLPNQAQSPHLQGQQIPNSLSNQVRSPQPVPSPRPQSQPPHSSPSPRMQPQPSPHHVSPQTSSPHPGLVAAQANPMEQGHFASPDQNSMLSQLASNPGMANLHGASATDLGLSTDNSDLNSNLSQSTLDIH
substance,measurement,setting,value
"hypophosphorylated RNA polymerase II (pol IIa), largest subunit (from UniProt P24928 1-1970) (natural protein)",percent of pol IIa recovered in the immunoprecipitate,[1],10% and 20%
same,percent of pol IIa recovered in the immunoprecipitate,[2],10% and 20%
